The source of these data is paper PMC10397247.

For one experiment, the target named is T1, P3mS.
T1 chain: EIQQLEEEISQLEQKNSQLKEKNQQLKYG
The experiment can be described thus: two-hybrid library CC1.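 Note: natural log of median RNA to DNA barcode read ratio; higher means stronger binding.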 To be noted: mean of both orientations.

For another experiment, the target named is T2, P5mS.
T2 chain: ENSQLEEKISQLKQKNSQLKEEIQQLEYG
The experiment can be described thus: two-hybrid library CC1.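 Note: natural log of median RNA to DNA barcode read ratio; higher means stronger binding.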 To be noted: mean of both orientations.

The target in the next experiment is T3, P6SC2.
T3 chain: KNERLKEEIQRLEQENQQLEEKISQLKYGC
In words: two-hybrid library CC1.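 Note: natural log of median RNA to DNA barcode read ratio; higher means stronger binding.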 To be noted: mean of both orientations.

In the next experiment the target is T4, P6mS.
T4 chain: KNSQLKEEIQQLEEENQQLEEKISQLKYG
In words: two-hybrid library CC1.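 Note: natural log of median RNA to DNA barcode read ratio; higher means stronger binding.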 To be noted: mean of both orientations.

For a further experiment, the target named is T5, P5.
T5 chain: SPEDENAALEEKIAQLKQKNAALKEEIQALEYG
In words: two-hybrid library CC1.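 Note: natural log of median RNA to DNA barcode read ratio; higher means stronger binding.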 To be noted: mean of both orientations.

The target in a further experiment is T6, P8.
T6 chain: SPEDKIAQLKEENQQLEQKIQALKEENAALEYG
The experiment can be described thus: two-hybrid library CC1.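 Note: natural log of median RNA to DNA barcode read ratio; higher means stronger binding.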 The conditions noted are these: mean of both orientations.

The target of a further experiment is T7, P9.
T7 chain: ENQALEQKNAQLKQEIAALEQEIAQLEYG
In words: two-hybrid library CC1. To be noted: mean of both orientations.

In the next experiment the target is T8, P5SC1.
T8 chain: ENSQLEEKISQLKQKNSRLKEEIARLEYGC
The experiment can be described thus: two-hybrid library CC1. The conditions noted are these: mean of both orientations.

Another experiment deals with T9, P11.
T9 chain: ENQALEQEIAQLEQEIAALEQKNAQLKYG
In words: two-hybrid library CC1. To be noted: mean of both orientations.

The target in the next experiment is T10, P6.
T10 chain: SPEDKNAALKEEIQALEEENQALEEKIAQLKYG
In words: two-hybrid library CC1. The conditions noted are these: mean of both orientations.

Another experiment addresses T11, P6SC1.
T11 chain: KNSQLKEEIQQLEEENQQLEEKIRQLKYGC
The experiment can be described thus: two-hybrid library CC1. The conditions noted are these: mean of both orientations.

The next experiment concerns the target T12, P4mS.
T12 chain: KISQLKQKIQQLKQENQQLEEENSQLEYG
The experiment can be described thus: two-hybrid library CC1. To be noted: mean of both orientations.

Another experiment addresses T13, P7mS.
T13 chain: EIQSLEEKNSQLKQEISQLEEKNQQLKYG
In words: two-hybrid library CC1. The conditions noted are these: mean of both orientations.

For a further experiment, the target named is T14, P7.
T14 chain: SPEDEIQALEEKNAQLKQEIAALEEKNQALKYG
The experiment can be described thus: two-hybrid library CC1. The conditions noted are these: mean of both orientations.

Another experiment has as its target T15, P5SC2.
T15 chain: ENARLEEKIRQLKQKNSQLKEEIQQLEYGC
In words: two-hybrid library CC1. To be noted: mean of both orientations.

The target in another experiment is T16, P8mS.
T16 chain: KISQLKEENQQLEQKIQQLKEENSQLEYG
The experiment can be described thus: two-hybrid library CC1. To be noted: mean of both orientations.

A further experiment has as its target T17, P4.
T17 chain: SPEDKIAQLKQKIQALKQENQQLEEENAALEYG
The experiment can be described thus: two-hybrid library CC1. To be noted: mean of both orientations.

For a further experiment, the target named is T18, P12.
T18 chain: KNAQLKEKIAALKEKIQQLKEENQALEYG
In words: two-hybrid library CC1. The conditions noted are these: mean of both orientations.

The target of a further experiment is T19, P10.
T19 chain: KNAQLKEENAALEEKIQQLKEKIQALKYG
The experiment can be described thus: two-hybrid library CC1.

Another experiment deals with T20, P3.
T20 chain: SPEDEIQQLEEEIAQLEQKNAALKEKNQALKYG
In words: two-hybrid library CC1. The conditions noted are these: mean of both orientations.

In a further experiment the target is T21, Core_IIII-es_KKEE.
T21 chain: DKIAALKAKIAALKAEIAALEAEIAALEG
The experiment can be described thus: two-hybrid library CCmax. To be noted: mean of both orientations.

B1: P10 (peptide)
chain: KNAQLKEENAALEEKIQQLKEKIQALKYG
Turning to B1, the interaction score in the experiment with P3mS is -2.74; with P5mS, -2.88; with P6SC2, -2.28; in the experiment with P6mS, -2.78; in the experiment with P5, -2.96; in the experiment with P8, -2.83. In addition, the interaction score is 0.493 with P9; -2.65 in the experiment with P5SC1; -0.938 with P11; -1.77 with P6; -2.61 in the experiment with P6SC1; -2.94 with P4mS. Besides, the interaction score was -2.22 with P7mS; -0.907 with P7; -2.77 with P5SC2; -2.75 with P8mS; -2.91 with P4; -2.49 with P12. For the same molecule, the results for the interaction score with P10 and with P3 were -2.46 and -1.63, respectively.

B2: Core_IIII-es_EEKK (peptide)
chain: DEIAALEAEIAALEAKIAALKAKIAALKG
B2: in the experiment with Core_IIII-es_KKEE, the interaction score was 1.78.
